In patent US8410045B2, “Camptothecin-peptide conjugates and pharmaceutical compositions containing the same” (Drais Pharmaceuticals, Inc., priority 2006, dated 2013):
Where two headings read alike, the source gives them in different places. Where a SMILES comes first, the peptide text is derived from it. [ ]: non-standard residue; d: D form. The star is where a group is joined. ξ: configuration not given here. X9 = CCc1c2c(nc3ccc(OC(=O)[C@H]4CC[C@H](CNC(=O)CCOCCOCCOCCOCCNC(=O)CCN5C(=O)CC(*)C5=O)CC4)cc13)-c1cc3c(c(=O)n1C2)COC(=O)[C@]3(O)CC; X6 = CCc1c2c(nc3ccc(OC(=O)[C@H]4CC[C@H](CNC(=O)C5CCC(CN6C(=O)CC(*)C6=O)CC5)CC4)cc13)-c1cc3c(c(=O)n1C2)COC(=O)[C@]3(O)CC; X7 = CCc1c2c(nc3ccc(OC(=O)CCCCCCCCCCN4C(=O)CC(*)C4=O)cc13)-c1cc3c(c(=O)n1C2)COC(=O)[C@]3(O)CC; ξC = NC(CS)C(=O)O

What was measured:
[1] = Stability of conjugates in citrated plasma at 37° C. (half life time, HPLC fluorescence); format: in vitro ADME, human; conditions: for half-life: human, plasma
Protocol: (§1) The stability of the conjugates was tested in citrated plasma (10% (v/v) sodium citrate buffer, 0.106M) from different species (see Table 1 below). The conjugates at 2.55 μM were incubated at 37° C. in plasma. Samples were analysed using the HPLC fluorescence method described below (see chromatographic equipment and conditions) following TFA/acetonitrile extraction and the amount of free camptothecin, analogs or derivatives thereof (e.g. SN38) released by the conjugates was measured.
(§2) Chromatographic equipment and conditions: 150 μL of each sample were placed in 1.5 mL micro-centrifuge tubes. 450 μL of 5% (v/v) TFA in H2O was added to each tube and the mixture was vortexed for 5 seconds. Samples were then centrifuged at 16000 g, 3 minutes at +4° C. 100 μL of supernatant were placed in 1.5 mL micro-centrifuge tubes. Methanol (100 μL) was then immediately added and vortexed for 5 seconds. Samples were then centrifuged at 16000 g, 3 minutes at room temperature. 150 μL of supernatant were recovered for HPLC analysis. Conjugates, metabolites and camptothecin derivative (i.e. SN38) were separated by high-performance liquid chromatography (HPLC; Agilent 1100 series equipped with a fluorescence detector) using a 4.6×100 mm ([…] particle size) Luna C18(2) column (Phenomenex ref. 00D-4251-E0, Le Pecq, France). The aqueous component of the mobile phase (A) was 0.1% (v/v) TFA in water. The organic modifier (B) was acetonitrile containing 0.1% (v/v) TFA. For the conjugate and its metabolites an elution gradient increasing linearly the proportion of B from 15 to 37% in 2 min, from 37 to 47% in 6 min, followed by 2 min at 90% was applied with a constant flow rate of 1.2 mL/min. The proportion of B was then returned to the initial condition for 3.0 min.
(§3) The half life time of conjugate corresponds to the time necessary to have 50% by mole of free camptothecin, analogs or derivatives thereof released by the conjugates of the invention. In human plasma, the half life time of conjugate DPV1047-linker #1-SN38 (less than 5 mins) was shorter than that of conjugate DPV1047-linker #2-SN38 (6-7 mins), which, in turn, was shorter than that of conjugate DPV1047-linker #3-SN38 (12 mins).
(§4) As in Example II, the stability of these conjugates was tested in either human or dog plasma. Following incubation at 37° C., samples were analyzed after a TFA acetonitrile extraction by the HPLC fluorescence method described in Example II. The in vitro cytotoxicity (IC50) of these compounds was also evaluated.

[2] = as above; format: in vitro ADME; conditions: dog, read-out: Dog Plasma Half life time
Protocol: as §1, §2, §3, §4

[3] = DPV1047-linker-SN38, 2.55 μM, citrated plasma, read-out: Half life time, Human plasma

## CCc1c2c(nc3ccc(OC(=O)[C@H]4CC[C@H](CNC(=O)C5CCC(CN6C(=O)CC(SC[C@H](NC(=O)[C@@H]7CCCN7C(=O)[C@H](CC(=O)O)NC(=O)[C@H](CCCNC(=N)N)NC(=O)[C@H](CCCCN)NC(=O)[C@H](CCCCN)NC(=O)CNC(=O)[C@H](CC(C)C)NC(=O)[C@H](CCCCN)NC(=O)CNC(=O)[C@H](CCCCN)NC(=O)[C@H](CCCCN)NC(=O)[C@H](CCCCN)NC(=O)[C@H](CCCNC(=N)N)NC(=O)[C@H](CCCCN)NC(=O)CN)C(=O)O)C6=O)CC5)CC4)cc13)-c1cc3c(c(=O)n1C2)COC(=O)[C@]3(O)CC (stereo partly shown) [DPV7-linker #5-SN38] (H-GKRKKKGKLGKKRDPC(X6)-OH; N-terminus and C-terminus assumed)
[1]; Table 10, SN38 conjugates, read-out: Human Plasma Half life time
  half-life: 2.7 h
[2]; Table 10, SN38 conjugates
  half-life: 1.87 h

## CCc1c2c(nc3ccc(OC(=O)[C@H]4CC[C@H](CNC(=O)C5CCC(CN6C(=O)CC(SCC(N)C(=O)N[C@H](CCCCN)C(=O)N[C@H](CCCNC(=N)N)C(=O)NCC(=O)N[C@H](CC(C)C)C(=O)N[C@H](CCCCN)C(=O)N[C@H](CC(C)C)C(=O)N[C@H](CCCNC(=N)N)C(=O)N[C@H](Cc7c[nH]cn7)C(=O)O)C6=O)CC5)CC4)cc13)-c1cc3c(c(=O)n1C2)COC(=O)[C@]3(O)CC (stereo partly drawn) [DPV51(D)-linker #5-SN38] (H-[ξC](X6)[dK][dR]G[dL][dK][dL][dR][dH]-OH; N-terminus and C-terminus assumed)
[1]; Table 12, CPP-linker #5-SN38 conjugates incl. D conformation, read-out: Human Plasma Half life time
  half-life: 4.45 h
[2]; Table 12, CPP-linker #5-SN38 conjugates incl. D conformation
  half-life: 2.92 h

## CCc1c2c(nc3ccc(OC(=O)CCCCCCCCCCN4C(=O)CC(SC[C@H](N)C(=O)N[C@H](C(=O)N[C@@H](CCCCN)C(=O)N[C@@H](CCCNC(=N)N)C(=O)NCC(=O)N[C@@H](CC(C)C)C(=O)N[C@@H](CCCCN)C(=O)N[C@@H](CC(C)C)C(=O)N[C@@H](CCCNC(=N)N)C(=O)N[C@@H](Cc5c[nH]cn5)C(=O)N[C@H](C(=O)N[C@@H](CCCNC(=N)N)C(=O)N5CCC[C@H]5C(=O)N[C@@H](CCCNC(=N)N)C(=O)N[C@H](C(=O)N[C@H](C(=O)N[C@@H](CCCNC(=N)N)C(=O)N[C@@H](CCSC)C(=O)N[C@@H](CC(=O)O)C(=O)N[C@H](C(=O)O)C(C)C)[C@@H](C)O)C(C)C)C(C)C)C(C)C)C4=O)cc13)-c1cc3c(c(=O)n1C2)COC(=O)[C@]3(O)CC (stereo partly shown) [DPV1047-linker #3-SN38] (H-C(X7)VKRGLKLRHVRPRVTRMDV-OH)
[1]; DPV1047-linker-SN38, 2.55 μM, citrated plasma
  Half life time, Human plasma: 8 to 9 min
[1]; [3]
  half-life: 0.2 h

## CCc1c2c(nc3ccc(OC(=O)[C@H]4CC[C@H](CNC(=O)CCOCCOCCOCCOCCNC(=O)CCN5C(=O)CC(SC[C@H](N)C(=O)N[C@H](C(=O)N[C@@H](CCCCN)C(=O)N[C@@H](CCCNC(=N)N)C(=O)NCC(=O)N[C@@H](CC(C)C)C(=O)N[C@@H](CCCCN)C(=O)N[C@@H](CC(C)C)C(=O)N[C@@H](CCCNC(=N)N)C(=O)N[C@@H](Cc6c[nH]cn6)C(=O)N[C@H](C(=O)N[C@@H](CCCNC(=N)N)C(=O)N6CCC[C@H]6C(=O)N[C@@H](CCCNC(=N)N)C(=O)N[C@H](C(=O)N[C@H](C(=O)N[C@@H](CCCNC(=N)N)C(=O)N[C@@H](CCSC)C(=O)N[C@@H](CC(=O)O)C(=O)N[C@H](C(=O)O)C(C)C)[C@@H](C)O)C(C)C)C(C)C)C(C)C)C5=O)CC4)cc13)-c1cc3c(c(=O)n1C2)COC(=O)[C@]3(O)CC (stereo partly shown) [DPV1047-linker #6-SN38] (H-C(X9)VKRGLKLRHVRPRVTRMDV-OH; N-terminus and C-terminus assumed)
[1]; [3]
  half-life: 0.5 h
